# Experimental data from US11254745.
# Columns and labels:
# [1] = target: extracellular domain of hCD4 fused with human Fc tag (hCD4-hFc) (human) (UniProt P01730); experiment: ELISA on plate-coated CD4-hFc, OD450; fitted EC50 of the negative control in the table under the graph (unit from the graph's axis)
# [2] = target: extracellular domain of hCD4 fused with human Fc tag (hCD4-hFc) (human) (UniProt P01730); experiment: ELISA on human CD4, OD450; fitted EC50 of the control in the table under the graph (unit from the graph's axis)
EC50 [1],EC50 [2],Substance
0.542 µg/mL,,mIgG1 (antibody)
,4.48 µg/mL,Isotype IgG1 (antibody)
,0.78 µg/mL,hIgG1 (antibody)
